Measured values: US20170037111A1, “Novel peptides and combination of peptides for use in immunotherapy against ovarian cancer and other cancers” (immatics biotechnologies GmbH, priority 2015, published 2017)

What follows are substances tested against HLA-A*02:01 (Homo sapiens, UniProt P04439, D140Y/D185E/D98H/E176V/E277Q/G131W/G231S/I119V/I121R/I166T/I218V/L300P/L318F/N151K/N90K/P208A/P217A/Q86G/Q94H/R138H/R169H/T345S) (assay: MHC binding assay (UV-ligand exchange, β2m ELISA, peptide exchange yield)). Details: MHC class I binding score; binding to HLA-A*02:01 ranged by peptide exchange yield (UV-ligand exchange, β2m ELISA).
How it was run: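 Binding is expressed as peptide exchange yield: stabilized MHC complexes were quantified by β2m ELISA, with a 450 nm TMB read-out on streptavidin-coated plates. Complexes came from UV-ligand exchange, where UV irradiation cleaves a photolabile peptide so the candidate peptide can load.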
With “495 (FIFSEKPVFV; listed as Homo sapiens) [compound 495]” the Peptide exchange was “″+++″ (≧50% = +++)”. In the case of “39 (SVAPNLPAV; listed as Homo sapiens) [compound 39]”, the Peptide exchange is reported as “″+++″ (≧50% = +++)”. With “390 (ALFMKQIYL; listed as Homo sapiens) [compound 390]” the Peptide exchange was “″+++″ (≧50% = +++)”. “635 (SLDSTLHAV; listed as Homo sapiens) [compound 635]” was tested, and the Peptide exchange was “″+++″ (≧50% = +++)”. In the case of “561 (YLQLTQSEL; listed as Homo sapiens) [compound 561]”, the Peptide exchange is reported as “″+++″ (≧50% = +++)”. “584 (ALAEVAAMENV; listed as Homo sapiens) [compound 584]” was tested, and the Peptide exchange was “″+++″ (≧50% = +++)”. For “477 (ALLPASGQIAL; listed as Homo sapiens) [compound 477]”, the Peptide exchange was “″+++″ (≧50% = +++)”. In the case of “345 (VIWKALIHL; listed as Homo sapiens) [compound 345]”, the Peptide exchange is reported as “″+++″ (≧50% = +++)”. In the case of “77 (ILVEADGAWVV; listed as Homo sapiens) [compound 77]”, the Peptide exchange is reported as “″++++″ (≧75% = ++++)”. For “515 (LLQELVLFL; listed as Homo sapiens) [compound 515]”, the Peptide exchange was “″+++″ (≧50% = +++)”. “402 (VLFSGALLGL; listed as Homo sapiens) [compound 402]” was tested, and the Peptide exchange was “″++″ (≧20% = ++)”. “80 (FLYDNLVESL; listed as Homo sapiens) [compound 80]” was tested, and the Peptide exchange was “″++″ (≧20% = ++)”. In the case of “494 (ALQPEPIKV; listed as Homo sapiens) [compound 494]”, the Peptide exchange is reported as “″++″ (≧20% = ++)”. For “553 (SLLNQDLHWSL; listed as Homo sapiens) [compound 553]”, the Peptide exchange was “″++++″ (≧75% = ++++)”. “352 (SLLELLHIYV; listed as Homo sapiens) [compound 352]” was tested, and the Peptide exchange was “″+++″ (≧50% = +++)”. For “455 (SLLKEPQKVQL; listed as Homo sapiens) [compound 455]”, the Peptide exchange was “″++″ (≧20% = ++)”. For “103 (TLAEEVVAL; listed as Homo sapiens) [compound 103]”, the Peptide exchange was “″+++″ (≧50% = +++)”. “129 (GLLDGGVDILL; listed as Homo sapiens) [compound 129]” was tested, and the Peptide exchange was “″+++″ (≧50% = +++)”. “391 (YVYPQRLNFV; listed as Homo sapiens) [compound 391]” was tested, and the Peptide exchange was “″+++″ (≧50% = +++)”. With “246 (LLWEVVSQL; listed as Homo sapiens) [compound 246]” the Peptide exchange was “″+++″ (≧50% = +++)”. “82 (FLSSVTYNL; listed as Homo sapiens) [compound 82]” was tested, and the Peptide exchange was “″+++″ (≧50% = +++)”. In the case of “492 (SLFDGFADGLGV; listed as Homo sapiens) [compound 492]”, the Peptide exchange is reported as “″+++″ (≧50% = +++)”. “243 (LLLNELPSV; listed as Homo sapiens) [compound 243]” was tested, and the Peptide exchange was “″+++″ (≧50% = +++)”. For “53 (KMIETDILQKV; listed as Homo sapiens) [compound 53]”, the Peptide exchange was “″++++″ (≧75% = ++++)”. With “70 (GLLDYPVGV; listed as Homo sapiens) [compound 70]” the Peptide exchange was “″+++″ (≧50% = +++)”. In the case of “264 (SLQEQLHSV; listed as Homo sapiens) [compound 264]”, the Peptide exchange is reported as “″+++″ (≧50% = +++)”. In the case of “122 (FLLAEDDIYL; listed as Homo sapiens) [compound 122]”, the Peptide exchange is reported as “″+++″ (≧50% = +++)”. For “560 (ALWDIETGQQTTT; listed as Homo sapiens) [compound 560]”, the Peptide exchange was “″+++″ (≧50% = +++)”. In the case of “189 (ALQRKLPYV; listed as Homo sapiens) [compound 189]”, the Peptide exchange is reported as “″+++″ (≧50% = +++)”. With “490 (FLLQHVQEL; listed as Homo sapiens) [compound 490]” the Peptide exchange was “″+++″ (≧50% = +++)”. “252 (LLIGTDVSL; listed as Homo sapiens) [compound 252]” was tested, and the Peptide exchange was “″+++″ (≧50% = +++)”. In the case of “180 (FQIDPHSGLVTV; listed as Homo sapiens) [compound 180]”, the Peptide exchange is reported as “″++″ (≧20% = ++)”. For “255 (VLASYNLTV; listed as Homo sapiens) [compound 255]”, the Peptide exchange was “″+++″ (≧50% = +++)”. For “452 (ILLEHGADPNL; listed as Homo sapiens) [compound 452]”, the Peptide exchange was “″+++″ (≧50% = +++)”. With “202 (ALLDQQGSRWTL; listed as Homo sapiens) [compound 202]” the Peptide exchange was “″+++″ (≧50% = +++)”. For “281 (ILRESTEEL; listed as Homo sapiens) [compound 281]”, the Peptide exchange was “″+++″ (≧50% = +++)”. In the case of “321 (GLFEDVTQPGILL; listed as Homo sapiens) [compound 321]”, the Peptide exchange is reported as “″++++″ (≧75% = ++++)”. With “554 (LLMPSSEDLLL; listed as Homo sapiens) [compound 554]” the Peptide exchange was “″+++″ (≧50% = +++)”. “567 (SLLPLDDIVRV; listed as Homo sapiens) [compound 567]” was tested, and the Peptide exchange was “″+++″ (≧50% = +++)”. With “586 (KLKPGDLVGV; listed as Homo sapiens) [compound 586]” the Peptide exchange was “″+++″ (≧50% = +++)”. “234 (ALMEDTGRQML; listed as Homo sapiens) [compound 234]” was tested, and the Peptide exchange was “″++″ (≧20% = ++)”. With “592 (RLLSAAENFL; listed as Homo sapiens) [compound 592]” the Peptide exchange was “″+++″ (≧50% = +++)”. In the case of “582 (TLCDVILMV; listed as Homo sapiens) [compound 582]”, the Peptide exchange is reported as “″+++″ (≧50% = +++)”. For “296 (FMEGAIIYV; listed as Homo sapiens) [compound 296]”, the Peptide exchange was “″+++″ (≧50% = +++)”. With “155 (RVANLHFPSV; listed as Homo sapiens) [compound 155]” the Peptide exchange was “″+++″ (≧50% = +++)”. “574 (YLLQEPPRTV; listed as Homo sapiens) [compound 574]” was tested, and the Peptide exchange was “″++″ (≧20% = ++)”. “354 (LILEGVDTV; listed as Homo sapiens) [compound 354]” was tested, and the Peptide exchange was “″++″ (≧20% = ++)”. For “348 (ILLDVKTRL; listed as Homo sapiens) [compound 348]”, the Peptide exchange was “″++++″ (≧75% = ++++)”. For “521 (MLLTKLPTI; listed as Homo sapiens) [compound 521]”, the Peptide exchange was “″+++″ (≧50% = +++)”. For “160 (FLFDEEIEQI; listed as Homo sapiens) [compound 160]”, the Peptide exchange was “″+++″ (≧50% = +++)”. For “591 (SMAELDIKL; listed as Homo sapiens) [compound 591]”, the Peptide exchange was “″+++″ (≧50% = +++)”. For “333 (FLPDANSSV; listed as Homo sapiens) [compound 333]”, the Peptide exchange was “″++″ (≧20% = ++)”. In the case of “250 (ALSEEGLLVYL; listed as Homo sapiens) [compound 250]”, the Peptide exchange is reported as “″+++″ (≧50% = +++)”. For “457 (SLLPGNLVEKV; listed as Homo sapiens) [compound 457]”, the Peptide exchange was “″+++″ (≧50% = +++)”. “381 (FIDEAYVEV; listed as Homo sapiens) [compound 381]” was tested, and the Peptide exchange was “″++″ (≧20% = ++)”. In the case of “372 (TMLLNIPLV; listed as Homo sapiens) [compound 372]”, the Peptide exchange is reported as “″++″ (≧20% = ++)”. With “140 (YMDAPKAAL; listed as Homo sapiens) [compound 140]” the Peptide exchange was “″++″ (≧20% = ++)”. In the case of “190 (FLSSLTETI; listed as Homo sapiens) [compound 190]”, the Peptide exchange is reported as “″+++″ (≧50% = +++)”.
